# Measured values as given in IntAct's records for PubMed 21331046.
# B1: Oxysterols receptor LXR-beta (Homo sapiens), P55055 (parent)
# chain: MSSPTTSSLDTPLPGNGPPQPGAPSSSPTVKEEGPEPWPGGPDPDVPGTDEASSACSTDWVIPDPEEEPERKRKKGPAPKMLGHELCRVCGDKASGFHYNVLSCEGCKGFFRRSVVRGGARRYACRGGGTCQMDAFMRRKCQQCRLRKCKEAGMREQCVLSEEQIRKKKIRKQQQESQSQSQSPVGPQGSSSSASGPGASPGGSEAGSQGSGEGEGVQLTAAQELMIQQLVAAQLQCNKRSFSDQPKVTPWPLGADPQSRDARQQRFAHFTELAIISVQEIVDFAKQVPGFLQLGREDQIALLKASTIEIMLLETARRYNHETECITFLKDFTYSKDDFHRAGLQVEFINPIFEFSRAMRRLGLDDAEYALLIAINIFSADRPNVQEPGRVEALQQPYVEALLSYTRIKRPQDQLRFPRMLMKLVSLRTLSSVHSEQVFALRLQDKKLPPLLSEIWDVHE
# B2: Oxysterols receptor LXR-beta (Homo sapiens), P55055 (parent)
# chain: B1 chain
# partner: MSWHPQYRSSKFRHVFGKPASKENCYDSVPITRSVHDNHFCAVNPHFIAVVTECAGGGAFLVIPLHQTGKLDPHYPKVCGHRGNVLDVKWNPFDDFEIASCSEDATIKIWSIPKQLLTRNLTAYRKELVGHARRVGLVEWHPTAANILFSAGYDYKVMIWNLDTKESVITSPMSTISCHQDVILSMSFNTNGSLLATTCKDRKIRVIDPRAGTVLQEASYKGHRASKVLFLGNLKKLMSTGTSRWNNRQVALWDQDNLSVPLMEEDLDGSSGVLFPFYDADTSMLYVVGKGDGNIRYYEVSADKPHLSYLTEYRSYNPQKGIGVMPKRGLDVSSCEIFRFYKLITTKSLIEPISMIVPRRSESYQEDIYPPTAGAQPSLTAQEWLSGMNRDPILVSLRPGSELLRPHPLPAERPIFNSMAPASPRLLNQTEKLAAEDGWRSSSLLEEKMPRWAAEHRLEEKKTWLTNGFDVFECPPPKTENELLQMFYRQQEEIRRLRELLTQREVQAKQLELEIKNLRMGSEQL
# B3: Oxysterols receptor LXR-beta (Homo sapiens), P55055 (parent)
# chain: B1 chain
# partner: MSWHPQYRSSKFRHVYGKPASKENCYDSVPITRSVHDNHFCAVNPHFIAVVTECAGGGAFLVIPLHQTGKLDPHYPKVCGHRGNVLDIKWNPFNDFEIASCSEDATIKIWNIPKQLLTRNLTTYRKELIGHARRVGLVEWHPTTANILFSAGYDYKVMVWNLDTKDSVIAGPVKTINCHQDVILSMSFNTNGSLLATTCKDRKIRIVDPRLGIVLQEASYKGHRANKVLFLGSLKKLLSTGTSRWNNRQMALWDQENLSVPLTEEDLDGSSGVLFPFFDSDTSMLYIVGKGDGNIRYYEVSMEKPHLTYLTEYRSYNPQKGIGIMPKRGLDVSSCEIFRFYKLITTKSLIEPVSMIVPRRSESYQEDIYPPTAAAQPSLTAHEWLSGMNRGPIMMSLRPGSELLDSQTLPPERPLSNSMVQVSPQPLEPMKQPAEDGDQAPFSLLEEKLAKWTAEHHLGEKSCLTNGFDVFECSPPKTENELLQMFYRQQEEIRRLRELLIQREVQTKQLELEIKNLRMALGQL
# Variants of: B1
# Conditions: with senp3_mouse Senp3, Q9EP97
# Sequence of senp3_mouse Senp3, Q9EP97 (Q9EP97 whole entry): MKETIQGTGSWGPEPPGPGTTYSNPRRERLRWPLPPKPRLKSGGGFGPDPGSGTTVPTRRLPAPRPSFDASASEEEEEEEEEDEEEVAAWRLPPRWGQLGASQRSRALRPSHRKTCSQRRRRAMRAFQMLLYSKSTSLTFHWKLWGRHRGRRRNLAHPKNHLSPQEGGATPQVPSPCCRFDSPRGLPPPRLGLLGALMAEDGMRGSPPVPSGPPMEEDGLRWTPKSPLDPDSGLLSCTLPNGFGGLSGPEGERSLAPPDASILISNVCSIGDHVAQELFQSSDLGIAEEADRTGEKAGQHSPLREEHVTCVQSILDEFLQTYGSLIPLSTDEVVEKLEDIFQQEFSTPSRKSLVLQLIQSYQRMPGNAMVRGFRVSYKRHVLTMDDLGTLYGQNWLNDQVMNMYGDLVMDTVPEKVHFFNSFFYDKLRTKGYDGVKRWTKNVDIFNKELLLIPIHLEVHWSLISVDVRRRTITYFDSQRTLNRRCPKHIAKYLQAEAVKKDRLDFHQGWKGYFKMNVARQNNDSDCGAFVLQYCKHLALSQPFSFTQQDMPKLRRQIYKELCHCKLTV
row,Variant,effect of a mutation on the interaction
1,S426A,disrupting interaction

# Variants of: B2
# Conditions: with cor2a_human CORO2A
row,Variant,effect of a mutation on the interaction
1,K409R;K447R,disrupting interaction

# Variants of: B3
# Conditions: with cor2a_mouse Coro2a
row,Variant,effect of a mutation on the interaction
1,S426D,disrupting interaction
